B1: LexA-Rec102 [S. cerevisiae] / Gal4AD-Spo11 [S. cerevisiae] (parent)
chain 1: MALEGLRKKYKTRQELVKALTPKRRSIHLNSNGHSNGTPCSNADVLAHIKHFLSLAANSLEQHQQPISIVFQNKKKKGDTSSPDIHTTLDFPLNGPHLCTHQFKLKRCAILLNLLKVVMEKLPLGKNTTVRDIFYSNVELFQRQANVVQWLDVIRFNFKLSPRKSLNIIPAQKGLVYSPFPIDIYDNILTCENEPKMQKQTIFPGKPCLIPFFQDDAVIKLGTTSMCNIVIVEKEAVFTKLVNNYHKLSTNTMLITGKGFPDFLTRLFLKKLEQYCSKLISDCSIFTDADPYGISIALNYTHSNERNAYICTMANYKGIRITQVLAQNNEVHNKSIQLLSLNQRDYSLAKNLIASLTANSWDIATSPLKNVIIECQREIFFQKKAEMNEIDARIFEYK
chain 2: MARDITFLTVFLESCGAVNNDEAGKLLSAWTSTVRIEGPESTDSNSLYIPLLPPGMLKIKLNFKMNDRLVTEEQELFTKLREIVGSSIRFWEEQLFYQVQDVSTIENHVILSLKCTILTDAQISTFISKPRELHTHAKGYPEIYYLSELSTTVNFFSKEGNYVEISQVIPHFNEYFSSLIVSQLEFEYPMVFSMISRLRLKWQQSSLAPISYALTSNSVLLPIMLNMIAQDKSSTTAYQILCRRRGPPIQNFQIFSLPAVTYNK

Variants of: B1
Test: Y2H quantitative β-galactosidase assay
Details: with Gal4AD-Spo11 [S. cerevisiae]; parent: 1; read off a plot

Variant	response (normalized β-gal units)
chain 2 MARDITFLTVFLESCGAVNNDEAGKLLSAWTSTVRIEGPESTDSNSLYIPLLPPGMLKIKLNFKMNDRLVTEEQELFTKLREIVGSSIRFWEEQLFYQVQDVSTIENHVILSLKCTILTDAQISTFISKPRELHTHAKGYPEIYYLSELSTTVNFFSKEGNYVEISQVIPHFNEYFSSLIVSQLEFEYPMVFSMISRLRLKWQQSSLAPISYALTSNSVLLPIMLNMIAQDKSSTTAYAILCRRRGPPIQNFQIFSLPAVTYNK [chain 2 Q239A]	0.27
chain 2 MARDITFLTVFLESCGAVNNDEAGKLLSAWTSTVRIEGPESTDSNSLYIPLLPPGMLKIKLNFKMNDRLVTEEQELFTKLREIVGSSIRFWEEQLFYQVQDVSTIENHVILSLKCTILTDAQISTFISKPRELHTHAKGYPEIYYLSELSTTVNFFSKEGNYVEISQVIPHFNEYFSSLIVSQLEFEYPMVFSMISRLRLKAQQSSLAPISYALTSNSVLLPIMLNMIAQDKSSTTAYQILCRRRGPPIQNFQIFSLPAVTYNK [chain 2 W202A]	0.1
chain 2 MARDITFLTVFLESCGAVNNDEAGKLLSAWTSTVRIEGPESTDSNSLYIPLLPPGMLKIKLNFKMNDRLVTEEQELFTKLREIVGSSIRFWEEQLFYQVQDVSTIENHVILSLKCTILTDAQISTFISKPRELHTHAKGYPEIYYLSELSTTVNFFSKEGNYVEISQVIPHFNEYFSSLIVSQLEFEYPMVFSMISRLRLKWQQSSAAPISYALTSNSVLLPIMLNMIAQDKSSTTAYQILCRRRGPPIQNFQIFSLPAVTYNK [chain 2 L207A]	2

Same assay, conditions: with LexA-Rec102 [S. cerevisiae]; parent: 1; read off a plot

Variant	response (normalized β-gal units)
chain 1 MALEGLRKKYKTRQELAKALTPKRRSIHLNSNGHSNGTPCSNADVLAHIKHFLSLAANSLEQHQQPISIVFQNKKKKGDTSSPDIHTTLDFPLNGPHLCTHQFKLKRCAILLNLLKVVMEKLPLGKNTTVRDIFYSNVELFQRQANVVQWLDVIRFNFKLSPRKSLNIIPAQKGLVYSPFPIDIYDNILTCENEPKMQKQTIFPGKPCLIPFFQDDAVIKLGTTSMCNIVIVEKEAVFTKLVNNYHKLSTNTMLITGKGFPDFLTRLFLKKLEQYCSKLISDCSIFTDADPYGISIALNYTHSNERNAYICTMANYKGIRITQVLAQNNEVHNKSIQLLSLNQRDYSLAKNLIASLTANSWDIATSPLKNVIIECQREIFFQKKAEMNEIDARIFEYK [chain 1 V17A]	0.5
chain 1 MALEGLRKKYKTRQELVKALTPKRRSIHLNSNGHSNGTPCSNADVLAHIKHFLSLAANSLEQHQQPISIVFQNKKKKGDTSSPDIHTTLDFPLNGPHLCTHQFKLKRCAILANLLKVVMEKLPLGKNTTVRDIFYSNVELFQRQANVVQWLDVIRFNFKLSPRKSLNIIPAQKGLVYSPFPIDIYDNILTCENEPKMQKQTIFPGKPCLIPFFQDDAVIKLGTTSMCNIVIVEKEAVFTKLVNNYHKLSTNTMLITGKGFPDFLTRLFLKKLEQYCSKLISDCSIFTDADPYGISIALNYTHSNERNAYICTMANYKGIRITQVLAQNNEVHNKSIQLLSLNQRDYSLAKNLIASLTANSWDIATSPLKNVIIECQREIFFQKKAEMNEIDARIFEYK [chain 1 L112A]	0.03
chain 1 MALEGLRKKYKTRQELVKALTPKRRSIHLNSNGHSNGTPCSNADVLAHIKHFLSLAANSLEQHQQPISIVFQNKKKKGDTSSPDIHTTLDAPLNGPHLCTHQFKLKRCAILLNLLKVVMEKLPLGKNTTVRDIFYSNVELFQRQANVVQWLDVIRFNFKLSPRKSLNIIPAQKGLVYSPFPIDIYDNILTCENEPKMQKQTIFPGKPCLIPFFQDDAVIKLGTTSMCNIVIVEKEAVFTKLVNNYHKLSTNTMLITGKGFPDFLTRLFLKKLEQYCSKLISDCSIFTDADPYGISIALNYTHSNERNAYICTMANYKGIRITQVLAQNNEVHNKSIQLLSLNQRDYSLAKNLIASLTANSWDIATSPLKNVIIECQREIFFQKKAEMNEIDARIFEYK [chain 1 F91A]	0.3
chain 1 MALEGLRKKYKTRQELVKALTPKRRSIHLNSNGHSNGTPCSNADVLAHIKHFLSLAANSLEQHQQPISIVFQNKKKKGDTSSPDIHTTLDFPANGPHLCTHQFKLKRCAILLNLLKVVMEKLPLGKNTTVRDIFYSNVELFQRQANVVQWLDVIRFNFKLSPRKSLNIIPAQKGLVYSPFPIDIYDNILTCENEPKMQKQTIFPGKPCLIPFFQDDAVIKLGTTSMCNIVIVEKEAVFTKLVNNYHKLSTNTMLITGKGFPDFLTRLFLKKLEQYCSKLISDCSIFTDADPYGISIALNYTHSNERNAYICTMANYKGIRITQVLAQNNEVHNKSIQLLSLNQRDYSLAKNLIASLTANSWDIATSPLKNVIIECQREIFFQKKAEMNEIDARIFEYK [chain 1 L93A]	0.15
chain 1 MALEGLRKKYKTRQELVKALTPKRRSIHLNSNGHSNGTPCSNADVLAHIKHFLSLAANSLEQHQQPISIVFQNKKKKGDTSSPDIHTTLDFPLAGPHLCTHQFKLKRCAILLNLLKVVMEKLPLGKNTTVRDIFYSNVELFQRQANVVQWLDVIRFNFKLSPRKSLNIIPAQKGLVYSPFPIDIYDNILTCENEPKMQKQTIFPGKPCLIPFFQDDAVIKLGTTSMCNIVIVEKEAVFTKLVNNYHKLSTNTMLITGKGFPDFLTRLFLKKLEQYCSKLISDCSIFTDADPYGISIALNYTHSNERNAYICTMANYKGIRITQVLAQNNEVHNKSIQLLSLNQRDYSLAKNLIASLTANSWDIATSPLKNVIIECQREIFFQKKAEMNEIDARIFEYK [chain 1 N94A]	0.07
chain 1 MALEGLRKKYKTRQELVKALTPKRRSIHLNSNGHSNGTPCSNADVLAHIKHFLSLAANSLEQHQQPISIVFQNKKKKGDTSSPDIHTTLDFPLNGPHLCTHQAKLKRCAILLNLLKVVMEKLPLGKNTTVRDIFYSNVELFQRQANVVQWLDVIRFNFKLSPRKSLNIIPAQKGLVYSPFPIDIYDNILTCENEPKMQKQTIFPGKPCLIPFFQDDAVIKLGTTSMCNIVIVEKEAVFTKLVNNYHKLSTNTMLITGKGFPDFLTRLFLKKLEQYCSKLISDCSIFTDADPYGISIALNYTHSNERNAYICTMANYKGIRITQVLAQNNEVHNKSIQLLSLNQRDYSLAKNLIASLTANSWDIATSPLKNVIIECQREIFFQKKAEMNEIDARIFEYK [chain 1 F103A]	0.35
